Here are results for 5 variants from IntAct's records for PubMed 36931259.

B1: 14-3-3 protein sigma (Homo sapiens), P31947 (parent)
chain: MERASLIQKAKLAEQAERYEDMAAFMKGAVEKGEELSCEERNLLSVAYKNVVGGQRAAWRVLSSIEQKSNEEGSEEKGPEVREYREKVETELQGVCDTVLGLLDSHLIKEAGDAESRVFYLKMKGDYYRYLAEVATGDDKKRIIDSARSAYQEAMDISKKEMPPTNPIRLGLALNFSVFHYEIANSPEEAISLAKTTFDEAMADLHTLSEDSYKDSTLIMQLLRDNLTLWTADNAGEEGGEAPQEPQS
partner: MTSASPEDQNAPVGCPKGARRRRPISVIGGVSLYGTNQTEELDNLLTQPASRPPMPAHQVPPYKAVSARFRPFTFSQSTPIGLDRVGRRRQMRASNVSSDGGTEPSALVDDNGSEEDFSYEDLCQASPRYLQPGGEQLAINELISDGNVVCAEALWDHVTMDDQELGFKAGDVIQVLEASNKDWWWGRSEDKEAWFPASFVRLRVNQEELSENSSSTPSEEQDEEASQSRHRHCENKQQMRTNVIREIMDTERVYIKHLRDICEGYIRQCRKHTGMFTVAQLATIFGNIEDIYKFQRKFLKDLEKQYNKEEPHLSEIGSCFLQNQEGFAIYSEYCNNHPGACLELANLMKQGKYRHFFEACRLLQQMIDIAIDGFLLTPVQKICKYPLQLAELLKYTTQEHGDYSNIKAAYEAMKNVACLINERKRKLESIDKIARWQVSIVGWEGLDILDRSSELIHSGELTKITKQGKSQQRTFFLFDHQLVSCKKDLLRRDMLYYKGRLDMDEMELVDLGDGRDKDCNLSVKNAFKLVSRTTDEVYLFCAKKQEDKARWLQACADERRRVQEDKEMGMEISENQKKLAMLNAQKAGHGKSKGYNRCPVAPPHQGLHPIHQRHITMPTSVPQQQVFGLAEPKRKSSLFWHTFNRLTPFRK
B2: 14-3-3 protein sigma (Homo sapiens), P31947 (parent)
chain: B1 chain
partner: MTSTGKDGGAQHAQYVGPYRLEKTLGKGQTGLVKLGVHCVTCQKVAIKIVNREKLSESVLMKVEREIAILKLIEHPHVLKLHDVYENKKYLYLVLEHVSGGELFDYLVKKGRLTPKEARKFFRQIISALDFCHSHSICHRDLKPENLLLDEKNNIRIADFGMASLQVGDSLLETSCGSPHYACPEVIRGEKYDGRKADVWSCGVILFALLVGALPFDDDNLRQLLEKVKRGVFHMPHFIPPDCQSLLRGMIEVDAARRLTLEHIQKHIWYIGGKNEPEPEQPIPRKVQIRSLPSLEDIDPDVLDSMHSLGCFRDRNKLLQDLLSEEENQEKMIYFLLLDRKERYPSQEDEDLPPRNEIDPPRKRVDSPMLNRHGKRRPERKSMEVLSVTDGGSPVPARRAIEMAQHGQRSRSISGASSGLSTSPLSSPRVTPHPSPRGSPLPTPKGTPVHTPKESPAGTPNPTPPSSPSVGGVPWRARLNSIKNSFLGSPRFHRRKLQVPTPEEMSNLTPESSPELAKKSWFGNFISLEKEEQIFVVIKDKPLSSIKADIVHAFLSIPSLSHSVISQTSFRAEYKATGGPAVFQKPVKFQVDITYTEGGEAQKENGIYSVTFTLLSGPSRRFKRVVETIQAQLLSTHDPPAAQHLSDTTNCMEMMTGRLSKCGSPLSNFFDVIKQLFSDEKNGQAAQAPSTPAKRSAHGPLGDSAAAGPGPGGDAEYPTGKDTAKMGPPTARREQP
B3: 14-3-3 protein sigma (Homo sapiens), P31947 (parent)
chain: B1 chain
partner: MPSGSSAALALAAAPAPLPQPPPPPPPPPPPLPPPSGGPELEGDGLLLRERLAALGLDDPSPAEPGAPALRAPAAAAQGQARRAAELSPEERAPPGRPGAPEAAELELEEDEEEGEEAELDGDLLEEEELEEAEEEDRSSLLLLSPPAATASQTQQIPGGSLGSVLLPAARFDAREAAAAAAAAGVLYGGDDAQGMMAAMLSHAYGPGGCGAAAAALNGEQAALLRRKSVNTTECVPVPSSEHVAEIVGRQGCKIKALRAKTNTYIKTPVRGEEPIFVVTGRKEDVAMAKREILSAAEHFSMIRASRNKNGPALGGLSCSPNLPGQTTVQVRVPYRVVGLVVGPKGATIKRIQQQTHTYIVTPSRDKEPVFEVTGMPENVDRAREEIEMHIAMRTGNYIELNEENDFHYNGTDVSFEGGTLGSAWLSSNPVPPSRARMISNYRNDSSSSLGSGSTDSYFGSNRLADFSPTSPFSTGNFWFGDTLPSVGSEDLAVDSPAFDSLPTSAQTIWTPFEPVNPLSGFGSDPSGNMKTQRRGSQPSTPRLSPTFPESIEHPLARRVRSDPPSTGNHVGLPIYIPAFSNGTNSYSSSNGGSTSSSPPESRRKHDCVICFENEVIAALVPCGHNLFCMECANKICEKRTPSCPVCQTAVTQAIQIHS
B4: 14-3-3 protein sigma (Homo sapiens), P31947 (parent)
chain: B1 chain
partner: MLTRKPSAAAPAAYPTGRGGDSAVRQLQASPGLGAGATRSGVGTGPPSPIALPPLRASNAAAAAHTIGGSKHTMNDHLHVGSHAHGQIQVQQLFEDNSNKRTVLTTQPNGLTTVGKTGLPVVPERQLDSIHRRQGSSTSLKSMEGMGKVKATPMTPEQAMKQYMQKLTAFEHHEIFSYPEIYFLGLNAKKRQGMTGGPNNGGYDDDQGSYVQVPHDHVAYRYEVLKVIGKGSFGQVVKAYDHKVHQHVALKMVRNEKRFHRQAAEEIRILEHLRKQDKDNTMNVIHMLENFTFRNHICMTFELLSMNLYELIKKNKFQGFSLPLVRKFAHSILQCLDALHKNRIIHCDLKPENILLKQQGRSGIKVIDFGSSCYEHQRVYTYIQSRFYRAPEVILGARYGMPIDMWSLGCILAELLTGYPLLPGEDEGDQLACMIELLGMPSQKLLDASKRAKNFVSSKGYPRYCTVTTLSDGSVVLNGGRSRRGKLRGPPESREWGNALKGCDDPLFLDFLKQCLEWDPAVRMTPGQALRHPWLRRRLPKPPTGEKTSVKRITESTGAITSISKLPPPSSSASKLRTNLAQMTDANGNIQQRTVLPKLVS
B5: 14-3-3 protein sigma (Homo sapiens), P31947 (parent)
chain: B1 chain
partner: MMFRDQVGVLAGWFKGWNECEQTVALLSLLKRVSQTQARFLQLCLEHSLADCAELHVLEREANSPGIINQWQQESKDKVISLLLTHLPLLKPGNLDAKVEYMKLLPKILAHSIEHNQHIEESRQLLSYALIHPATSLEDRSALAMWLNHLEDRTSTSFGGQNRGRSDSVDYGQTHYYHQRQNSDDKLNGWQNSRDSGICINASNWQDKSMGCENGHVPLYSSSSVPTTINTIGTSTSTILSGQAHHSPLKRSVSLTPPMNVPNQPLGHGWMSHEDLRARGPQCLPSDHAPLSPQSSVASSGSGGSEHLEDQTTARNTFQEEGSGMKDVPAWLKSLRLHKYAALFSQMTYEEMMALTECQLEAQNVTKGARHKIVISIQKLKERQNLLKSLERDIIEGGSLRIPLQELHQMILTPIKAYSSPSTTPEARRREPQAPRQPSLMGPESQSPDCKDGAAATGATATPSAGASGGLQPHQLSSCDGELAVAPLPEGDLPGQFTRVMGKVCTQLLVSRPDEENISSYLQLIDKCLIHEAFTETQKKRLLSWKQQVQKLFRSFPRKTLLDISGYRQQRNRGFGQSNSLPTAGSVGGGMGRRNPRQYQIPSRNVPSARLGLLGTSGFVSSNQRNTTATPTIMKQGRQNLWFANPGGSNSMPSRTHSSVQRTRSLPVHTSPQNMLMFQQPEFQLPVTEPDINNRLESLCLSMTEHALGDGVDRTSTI

The variants in one experiment derive from B1. As to conditions: with spt13_human SPATA13, Q96N96.
Take K49E;R56E;V178D: the “effect of a mutation on the interaction” value is on record as “decreasing interaction strength”.

Another experiment covers variants of B2. As to conditions: with brsk2_human BRSK2, Q8IWQ3.
On to K49E;R56E;V178D, for which the “effect of a mutation on the interaction” value was “decreasing interaction strength”.

Variants of B3 are the subject of a further experiment. As to conditions: with mex3c_human MEX3C.
For the variant K49E;R56E;V178D, the “effect of a mutation on the interaction” value was “decreasing interaction strength”.

The variants in a further experiment derive from B4. To be noted: with dyrk2_human DYRK2, Q92630.
As to K49E;R56E;V178D, the “effect of a mutation on the interaction” value is on record as “decreasing interaction strength”.

In a further experiment the parent is B5. As to conditions: with smag1_human SAMD4A.
As for K49E;R56E;V178D, the “effect of a mutation on the interaction” value was “decreasing interaction strength”.
